From article PMC12855940

Target: tau 2N4R (tau-441) wild type (human, UniProt P10636-8 1-441)
Assay: EMSA

B1: 24-bp dsDNA (dsDNA)
DNA 1: TCGACACGGAAATGTTGAATACTA
DNA 2: TAGTATTCAACATTTCCGTGTCGA
B1: binds.
